Experiment: yeast display, Sf9 membrane polyspecificity reagent, FACS + sequencing; frameworks hold sequencing errors
How it was run: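 After 36–48 hours of galactose induction, yeast (Saccharomyces cerevisiae BJ5465) displaying a synthetic nanobody library were stained at 4 °C for 1 hour with 10% biotinylated, detergent-solubilized Sf9 membrane reagent. Streptavidin microbeads enriched the stained cells before FACS sorting into low and high (top ~1%) gates on anti-HA and streptavidin fluorescence. Each clone's polyreactivity label reflects its gate of origin.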

Sequence	polyreactivity (PSR sort gate)
QVQLVESGGGLVQAGGSLRLSCAASGRIFAFYVMGWYRQAPGKERELVAAITSGGNTNYADSVKGRFTISRDNAKNTVYLQMNSLKPEDTAVYYCARAWLGQYTLGTYYYWGQGTQVTVSS	low polyreactivity
QVQLGESGGGFVQAGGSLRLSCAASGFIFAPYAMGWYRHAPGKERELDAFISWSGGRTYYADSVKGRFTLSRDKAKNTVYLLMNSLNPEDTAVYYCNARGSRRGGPGYEYWGQGTQVTVSS	high polyreactivity
QVQLVESGGGLVQAGGSLRLSCAASGRIFRLNAMGWYRQAPGKERELVAAITVSDSSTYADSVKGRFTISRDNAKNTVYLQMNSLKPEDTAVYYCNRDTYTEYAHSWRGWSVIFDYWGQGTQVTVSS	high polyreactivity
QVQLVESGGGLVQAGGSLRLSCAASGRIFGRNAMGWYRQAPGKEREFVAAITSSGGNTYYADSVKGRFTISRDNAKNTVYLQMNSLKPEDTAVYYCAARGARYCTSDYWGQGTQVTVSS	high polyreactivity
QVQLVESGGGLVQAGGSLRLSCAASGFTFNAYAMGWYRQAPGKERELVAAINVSGGITYYADSVKGRFTISRDNAKNTVYLQMNSLNPEDTAVYYCAKGLDVVQRSEFDYWGQGTQVTVSS	low polyreactivity
QVQIVESGGGLVQAGGSLRLSCDASGSIFGRNAMGWYRQAPGKERELVAAITRTGGRTYYPDSVKGRITISRDNAKNTVYLQMNSLKPEDTEVKYCARYGGYWSLKYDYWGQGTQVTVSS	high polyreactivity
QVQLVESGGGLVQAGGSLRLSCAASGGTFAFYAMGWYRQAPGKERELVAAITSGGRTYYADSVKGRFTISRDNAKNTVYLQMKRLKPEDTAVYYCNADWVDHYYVGYDYWGQGTQVTVSS	low polyreactivity
QVQLVESGGGLVQAGGSLRLSCAASGFTFRYNTMGWYRQAPGKERELVAAISSSGGRTYYADSVKGRFTISRDNAKNTVYLQMNSLKPEDTAVYYCNAVTRESGGFDYWGQGTQVTVSS	high polyreactivity
QVQLVESGGGLVQAGGSLRLSCAASGRTFVWNAIGWYRQAPGKERELVDAITSGGSTNYADSVKGRFTISRDNAKNTVYLQMNSLKPEDTAVYYCAADWHYSPRMDYWGQGTLVTVSS	low polyreactivity
QVQLVESGGGLVQAGGSLRLTCAASGFIFDEYAMGWYRQAPGKERELVAAISWSGSRTYYADSVKGRFTISRDNAKTTVYLQMNSLKPEDTAVYYCAKVTGVGAGRRNYWGQGTQVTVSS	high polyreactivity
QVQLVESGGGLVQAGGSLRLSSAASGRTFPTYTIGGYRQAPGKERELVAAITRGGSTKYADSVKGRFTISRDNAKNTVYLQMNSLKPEDTAVYYCAAVYRYRHSFAYYRHEMDYWGQGTQVTVSS	low polyreactivity
QVQLVESGGGLVQAGGSLRLSCAASGRTFGTYAMGWYRQAPGKERELVAAISRRGGTTYYADSVKGRFTISRDNAKNTVYLQMNSLKPEDTAVYYCNVYRVSFSVVPLGYWGQGTQVTVSS	high polyreactivity
QVQLVESGGGLVQAGGSLRLSCAASGTIFGEYAMGWYRQAPAKERELVADITTGGNTNYADSVKGRFTISRDNAKNTVYLQMNSLTPEATAVYYCAADFFSRDWGQGTQVTVSS	low polyreactivity
QVQLGESGGGLVQAGGSLRLRCAASGSNFRTYVMGWYRQGPGKERELVAAISRRGGSTYYADSVKGRFTISRDNAKNTVYLPMNSLKPEDTAVYNCAAEDEYSLEYSTLDYWGQGTQVTVSS	high polyreactivity
QVQLVESGGGLVQAGGSLRLSCAASGSTFYYYAMGWYRQAPGKERELVAAITIGGSTNYADSVKGRFTISRDNAKNTVYLQMNSLKPVDTAVYYCAADYRITYARDFDYWGQGTQVTVSS	low polyreactivity
QVQLVESGGGLVQAGGSLRLSCAASGFTFYRYAMGWYRQAPGKERELVAVITGRGGTTYYADSVKGRFTISRDNAKNTVYLQMNSMKPEDTAVYYCAVQTHRSLDPYDYWGQGTQVTVSS	high polyreactivity
QVQLVESGGGLVQAGGSLRLSCAASGITFLPYAMGWYRQAPGKERELVAAITRGGGSTYADSVKGRFTISRDNAKYTVYLQMKSLKPEDTAVYYCAKRLGRVSWYEDYDYWGQGTEVTVSS	low polyreactivity
QVQLVESGGGLVQAGGSLRLSCAASGSIYRYYAMGWYRQAPGKETELVAAIRVSTGSTSYADSVKGRFTISRDNAKNTVYLQMNSLKPEDTAFYYCNAGVGYFVGTYYGFLPYDYWGQGTQVTVSS	high polyreactivity
QVQLVESGGGLVQAGGSLRLSCAASGSIFGRYAMGWYRQAPGKERELVAAISSSGGRTYYADSVKGRFTISRDNAKNTVYLKMNSLKPEDTAVYYCNKDWYYLIPGYNYWGQGTQVTVSS	high polyreactivity
QVQLVESGGGLVQAGGSLRLSCAASGSTFILYAMGWYRQAPGKERELVAAITTSGGSTYYADSVKGRFTISRDNAKNTVYLQMKSLKPEDTAVYYCNGGLSVTHGTSIPFRNYEYWGQGTQVTVSS	low polyreactivity
QVQHEESGGGLVQAGGSLRLSCAASGSIFSDYALGWYRPAPGKERELVAAITINGGSTYYADSVKGRFTISRDNAKITVYLQLNSLKPEDTAVEYCNAGWGRLYDYWGQGTQVTVSS	low polyreactivity
QVQLVESGGGLVQAGGSLRLSCAASGFTFYRNAMGWSRQAPGKERELVARIRGTGGRTYYADSVKGRFTISRDNAKNTVYLQMNSLKPEDSAVYYCARRYHYSLYGYWGQGTQVTVSS	high polyreactivity

Sequence	polyreactivity (PSR sort gate)
QVQLVESGGGLVQAGGSLRLSCAASGLTFADYAMGWYRKAPGKERELVAAISRRGGSTYYADSVKGRFTISRDNAKNTVYLQMNSLKPEDTAVYYCNAAYVYGDQARGGYWGQGTQVTVSS	high polyreactivity
QVQLVESGGGLVQAGGSLRLSCAASGRTFKYYAMGWYRQAPGKERELVATINYSGGGTYYADSVKRRFTSSRDNAKNTVYLQMNSLKPEDTAVYYCAATRYSFGPRRVDYWGQGTQVTVSS	high polyreactivity
QVQLVESGVGLVQAGGSLRLSCAASGSTFDDYAMGWYRQAPGKERELVAAINKTGGSTNYADSVKGRFTISRDNAKNTVYLQMNSLKPEDNAVYYCAADGSNYSASVAAFPYRVDYWGQGTQVTVSS	low polyreactivity
QVQLVESGGGLVQAGGSLRLSCAASGRIFYPNAMGWYRQAPGKERELVAAITWRGGRTYYADSVKGRFTISRDNAKNTVYLQMNSLKPEDTAVYYCNAVAPGKYNHWGQGTQVTVSS	high polyreactivity
QVQLVESGGGLVQAGGSLRLRGAAAGYNFLRYAIGWYRQAPGTERELVAAITNTGNTNYADSVKGRFTISRDNAKNTVYLQMNSLKPEDTAVYSCAAEYYWYSWKNRYKEYDYWGQGTQVTLSS	low polyreactivity
QVQLVESGGGLVQAGGSLRLSCAASGRIFDRKAMGWYRQAPGKERELVAAISSRDGSTYYADSVKGRFTISRDNAKNTVYLQMNSLKPEDTGVYYCNRVSRGPVGGYYWGQGTQVTVSS	high polyreactivity
QVQLVESVGGLVQPGGSLRLSCAASGFTFRNNAMGWYRQSPVKERELVAAITGSGGRTYYTDSVKGRFTISSDNAKNTVYLQMHSLKPEDTAVYYCNTRYRGVHYTEMDYWGQGTQVSVSS	high polyreactivity
QVQLVESGGGLVQAGGSLRLSCAASGFIFAKYAMGWYRQAPGKEMELVAAITSGGSTNYADSVKGRFTISRDNAKNTVYLQMNSLKPDDTAVYYCNRGFDWWYRYRHYDYWGQGTQVTVSS	low polyreactivity
QVQLVESGGGLVQAGGSLRLSCAASGYIFTGNAMGWYRQAPGKEREFVAAISWSGGSTYYADSVKGRFTISRDNAKNTVYLQMNSLKPEDTAVYDCNKYRPYGRIYHLAYGRDDWGQGTQVTVSS	high polyreactivity
QVQLVESGGGLVQAGGSLRLSCAASGRTFPGYAMGWYRQAPGKERELVASITSRGGITYYADSVKGRFTISRDNAKNTVYLQMNSLKPEDTAVYYCATDFAVTKMEYWGQGTQVTVSS	low polyreactivity
QLQLVESGGGLVQAAGSLRLSSAASGSIFPDNAKGWYRQAPAKERELVATITSGGDTNYADSVKGRFTISRDNAKNTVYLQMNSLKPEDTAVYYCAADVYPDWLVKYDYWGQGTQVTVSS	low polyreactivity
QVQLVESGGGFVQAGGSLRLSCAASGRTFSYYAMGCYRQAPGKERELVASISGGGRTNYADSVKGRFTISRDNAKNTVYLQMNSLKAEDTAVYYCAARYEVRHTLYNYWGQGTQVTVSS	high polyreactivity
QVQLVDTGGGLVQAGGSLRLSCAASGFTFRWYAMGWYRQAPGKERELVAAISWRGGSTYYADSVKGRFTISRDNAKTTVYLQMNSLKPEDTAVYYCAALRYWISLSSYEYWGQGTQVTVSS	high polyreactivity
QVQLVGSGGGLLQAGASLRLSCAASGRIFRAYAMGWYRQAPGKERELVAAISWRSGSTYYADSVKGRFTISRDNAKTTVYLQMNSLKPEDTAVYYCAAYTNRVVNGYGYWGQGTQVTVSS	high polyreactivity
QVQLVESGGGLVQAGGSLRLSCAASGTFYKYAMGWYRQAPGKERELVAAISWRGGRTYADSVKGRFTISRDNANNTVYLQMNSLKPEDTAVYYCAAEYRYDWYTYGYWGQGTQVTVSS	high polyreactivity
HVQLVESGGGLVQAGGSLRLSCAASGIIFNLYAMGWYRQAPVKERELFAAISWSGGSTYYADSVKGRFTISRDNAKNTVYLKMNSLKPEDTAVYYCAAQRSVFKSFRTTYVRYDYWGQGTQVTVSS	high polyreactivity
QVQLVESGGGLGQAGGSLRLSCAASGFIFGPYAMGWYRQARGKETELVAAISSSGGSTSYADSVKGRFTISRDNAKNTVYLQMNSLKPEDTAVYYCAARGRYRFYSNNYDYWGQGTQVTVSS	high polyreactivity
QVQLVESGGGLVQAGGSLRLSCAASGRIFEFYAMGWYRQAPGKERELVAAISFSGTSTYYADSVKGRFTISRDNAKNTVYLQMNSLKPEDTAVYYCAVRGVGADYDYWGQGTQVTVSS	low polyreactivity
QVQLVESGGGLVQAGGSHRLSCAASGSIFHRYAMGWYRQAPGKERELVAGITWSGDSTYYADSVKGRFTISRDNAKNTVYLEMNSLKPEDTGVYYCAKRAPRHYKGVPAAWFGYWGQGTQVTVSS	low polyreactivity
QVQLQESRGGLLQAGGSLCLSCAASGNIIFDGDMRWYRQAPGKEREFVAAINPGGSAYYADSVKGRLPLAAITHTVYLQLNSLNPPDTAVYYCAAKLFDVYGYYYWGQGTHVTVSS	low polyreactivity
QVQLLESGGGLVQAGGSLRLTCAASGRTFYRNAMGWYRPAPGKERELVAAISSGGSTTYADSVKGRFTISRDNAKNTVYLQMNSLKPEDTAVYYCAARSHAGSVSPRLKEYDYWGQGTQVTVSS	low polyreactivity
